This note sets out measurements from article PMC7400623, “Effect of lysine side chain length on histone lysine acetyltransferase catalysis” (Scientific Reports, 2020).

Test [1] has as its target Human PCAF catalytic domain (residues 498-658) (human) (UniProt Q92831).
In test [2] the target is Human GCN5 catalytic domain (residues 497-662) (human) (UniProt Q92830).
For test [3], the target named is Human PCAF catalytic domain (residues 498-658) (human) (UniProt Q92831). This is another data set of the same source.
Chain of Human PCAF catalytic domain (residues 498-658) (human) (Q92831 498-658): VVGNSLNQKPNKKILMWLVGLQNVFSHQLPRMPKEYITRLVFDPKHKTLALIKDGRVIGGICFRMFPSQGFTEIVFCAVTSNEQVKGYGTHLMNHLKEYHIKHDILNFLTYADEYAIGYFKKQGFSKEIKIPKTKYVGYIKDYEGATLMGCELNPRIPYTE

Chain of Human GCN5 catalytic domain (residues 497-662) (human) (Q92830 497-662): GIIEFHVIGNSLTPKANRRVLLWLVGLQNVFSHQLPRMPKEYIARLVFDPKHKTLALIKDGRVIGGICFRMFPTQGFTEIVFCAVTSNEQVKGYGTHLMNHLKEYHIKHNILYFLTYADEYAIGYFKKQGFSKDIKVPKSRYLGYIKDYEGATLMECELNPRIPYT

On to “H3K*9 histone peptide containing Dab at position 9 (H3 residues 1-15, K14 acetylated)”, for which, in test [1], the IC50 of inhibition of PCAF-catalyzed acetylation of the H3K9 peptide (single point, 100 µM of each peptide, 1 h, 37 °C, MALDI-TOF MS; residual activity greater than 50%) is more than 100 µM. For the same substance, the IC50 of inhibition of GCN5-catalyzed acetylation of the H3K9 peptide (single point, 100 µM of each peptide, 1 h, 37 °C, MALDI-TOF MS; residual activity greater than 50%) in test [2] is more than 100 µM.
Turning to “H3K*9 histone peptide containing Orn at position 9 (H3 residues 1-15, K14 acetylated)”, the IC50 of inhibition of PCAF-catalyzed acetylation of the H3K9 peptide (single point, 100 µM of each peptide, 1 h, 37 °C, MALDI-TOF MS; residual activity greater than 50%) in test [1] is more than 100 µM. Further, in test [2], the IC50 of inhibition of GCN5-catalyzed acetylation of the H3K9 peptide (single point, 100 µM of each peptide, 1 h, 37 °C, MALDI-TOF MS; residual activity greater than 50%) was more than 100 µM.
For “H3K*9 histone peptide containing h4K at position 9 (H3 residues 1-15, K14 acetylated)”, the IC50 of inhibition of PCAF-catalyzed acetylation of the H3K9 peptide (single point, 100 µM of each peptide, 1 h, 37 °C, MALDI-TOF MS; residual activity greater than 50%) in test [1] was more than 100 µM. In test [2], the IC50 of inhibition of GCN5-catalyzed acetylation of the H3K9 peptide (single point, 100 µM of each peptide, 1 h, 37 °C, MALDI-TOF MS; residual activity greater than 50%) was more than 100 µM.
Take “H3K*14 histone peptide containing Dab at position 14 (H3 residues 3-17, K9 acetylated)”: the IC50 of inhibition of PCAF-catalyzed acetylation of the H3K14 peptide (single point, 100 µM of each peptide, 1 h, 37 °C, MALDI-TOF MS; residual activity greater than 50%) in test [1] was more than 100 µM. This substance also gave an IC50 of inhibition of GCN5-catalyzed acetylation of the H3K14 peptide (single point, 100 µM of each peptide, 1 h, 37 °C, MALDI-TOF MS; residual activity greater than 50%) in test [2] of more than 100 µM.
The substance “H3K*14 histone peptide containing Orn at position 14 (H3 residues 3-17, K9 acetylated)” showed an IC50 of inhibition of PCAF-catalyzed acetylation of the H3K14 peptide (single point, 100 µM of each peptide, 1 h, 37 °C, MALDI-TOF MS; residual activity greater than 50%) in test [1] of more than 100 µM. Also, the IC50 of inhibition of GCN5-catalyzed acetylation of the H3K14 peptide (single point, 100 µM of each peptide, 1 h, 37 °C, MALDI-TOF MS; residual activity greater than 50%) in test [2] was more than 100 µM.
For the substance “H3K*14 histone peptide containing h4K at position 14 (H3 residues 3-17, K9 acetylated)”, the IC50 of inhibition of PCAF-catalyzed acetylation of the H3K14 peptide (single point, 100 µM of each peptide, 1 h, 37 °C, MALDI-TOF MS; residual activity greater than 50%) in test [1] was more than 100 µM. The substance also showed an IC50 of inhibition of GCN5-catalyzed acetylation of the H3K14 peptide (single point, 100 µM of each peptide, 1 h, 37 °C, MALDI-TOF MS; residual activity greater than 50%) in test [2] of more than 100 µM.
On to “H3h2K9 histone peptide (H3 residues 1-15, K14 acetylated, h2K at position 9)”, for which the Km^app of PCAF-catalyzed acetylation (MALDI-TOF MS kinetics, steady state, saturating AcCoA, 37 °C, pH 7.4) in test [3] was 179 μM.
